Assays:
[1] = target: T1, S. aureus Pol C holoenzyme (Staphylococcus aureus, UniProt P0A024); test: Replicase DNA synthesis assay on primed M13mp18 ssDNA, with peptides; assay type: biochemical; conditions: primed M13mp18 ssDNA coated with SSB
T1 construct: made in house
T1 sequence (P0A024 1-377): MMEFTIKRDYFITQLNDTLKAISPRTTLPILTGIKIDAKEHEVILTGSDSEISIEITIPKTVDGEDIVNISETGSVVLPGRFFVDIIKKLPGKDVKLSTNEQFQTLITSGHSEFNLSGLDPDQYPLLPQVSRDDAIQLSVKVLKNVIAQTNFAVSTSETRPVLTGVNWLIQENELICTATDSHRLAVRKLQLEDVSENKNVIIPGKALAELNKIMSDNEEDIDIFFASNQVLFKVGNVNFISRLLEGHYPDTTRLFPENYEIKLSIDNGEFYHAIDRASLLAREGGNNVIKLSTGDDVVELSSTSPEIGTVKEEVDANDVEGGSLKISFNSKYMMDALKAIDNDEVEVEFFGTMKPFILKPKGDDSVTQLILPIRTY
Experimental: (§1) Peptides, when present, were added to the indicated concentration.

S. pyogenes β = test: Binding of rhodamine-labeled polymerase C-terminal peptides to β clamp; set-up: species or system Streptococcus pyogenes; conditions: β titrated in
Experimental: This assay has also been examined using Streptococcus pyogenes β and rhodamine labeled peptides corresponding to C-terminal residues of Streptococcus pyogenes Pol C and E. coli Pol III. […] The C-terminal peptide corresponding to Staphylococcus aureus Pol C was also tested for binding to these β clamps (FIG. 1C).

E. coli β clamp = E. coli β clamp (Escherichia coli, UniProt P0A988); conditions: E. coli β labeled with Oregon Green or rhodamine-labeled peptide; Kd only in FIG. 1A
Description: The assays corresponding to the data in the Table of FIG. 1A, use E. coli β labeled with an Oregon Green fluorophore. Peptides of various polymerases were titrated into the labeled β, and the Kd values were obtained from the resulting fluorescent intensity changes. All other plots utilize rhodamine-labeled polymerase peptide from E. coli α (FIG. 1A), S. pyogenes Pol C (FIG. 1B), S. aureus Pol C (FIG. 1C). β clamp from the organisms indicated are titrated into the fluorescent peptide.
A rhodamine-labeled 20 mer peptide corresponds to the sequence of the C-terminal 20 residues of E. coli Pol III α subunit. […] A plot of the fluorescence change with beta concentration provides a Kd value for the interaction between these molecules (FIG. 1A).

[2] = target: E. coli DNA polymerase III replicase (Escherichia coli, UniProt P0A988); conditions: primed M13mp18 ssDNA coated with SSB
Experimental: Assays were performed using primed M13mp18 ssDNA coated with SSB as substrate. Each reaction was 25 μl and contained 72 ng primed M13mp18 ssDNA, 1 μg SSB, 0.1 mM MgCl2, 20 mM TrisHCl (pH 7.5), 0.1 mM EDTA, 5 mM DTT, 40 μg/ml BSA, 4% glycerol, […], 2 mM ATP, 60 μM each of dCTP, dATP, dGTP and 20 μM α^32-P dTTP. Replicases consisted of the following for each E. coli, S. pyogenes, and S. aureus: 50 ng Pol III core (E. coli) or Pol C (S. pyogenes and S. aureus), 200 ng τ, 20 ng δδ′ and 40 ng β. Peptides, when present, were added to the indicated concentration. Reactions were assembled on ice in the absence of the polymerase, then shifted to 37° C. for 3 min before initiating synthesis by addition of the polymerase. Reactions were incubated a further 3 min prior to quenching and quantitation of synthesis.

[3] = system: S. pyogenes PolC holoenzyme; test: Replicase DNA synthesis assay on primed M13mp18 ssDNA, with peptides; assay type: biochemical, Streptococcus pyogenes; conditions: primed M13mp18 ssDNA coated with SSB
Experimental: as §1

E. coli β clamp, sequence (P0A988 whole entry): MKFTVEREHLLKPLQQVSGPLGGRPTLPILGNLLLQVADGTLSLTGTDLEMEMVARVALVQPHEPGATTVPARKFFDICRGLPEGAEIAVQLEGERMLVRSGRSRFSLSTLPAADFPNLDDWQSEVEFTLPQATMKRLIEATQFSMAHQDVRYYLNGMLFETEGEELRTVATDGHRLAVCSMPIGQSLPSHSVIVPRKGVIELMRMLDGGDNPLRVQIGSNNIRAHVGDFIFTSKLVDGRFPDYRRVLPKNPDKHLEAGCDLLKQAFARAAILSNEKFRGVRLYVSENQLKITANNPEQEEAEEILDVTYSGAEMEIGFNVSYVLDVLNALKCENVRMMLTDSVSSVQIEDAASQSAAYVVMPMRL
E. coli DNA polymerase III replicase, sequence (P0A988 whole entry): as above

S. aureus Pol C peptide: C-terminal peptide of Staphylococcus aureus Pol C; DELGSLPNLPDKAQLSIFDM (SEQ ID NO: 13) (listed as Staphylococcus aureus)
inhibition of DNA synthesis by S. aureus Pol C holoenzyme [1]: inhibit DNA synthesis
binding of peptide to S. pyogenes β (S. pyogenes β): bound
binding of peptide to E. coli β clamp (E. coli β clamp): binds
inhibition of DNA synthesis by E. coli DNA polymerase III replicase [2]: inhibit DNA synthesis
inhibition of DNA synthesis by S. pyogenes PolC holoenzyme [3]: inhibit DNA synthesis

S. pyogenes Pol C peptide: C-terminal residues of Streptococcus pyogenes Pol C; DEMGILGNMPEDNQLSLFDDFF (SEQ ID NO: 15) (Streptococcus pyogenes)
inhibition of DNA synthesis by S. aureus Pol C holoenzyme [1]: inhibit DNA synthesis
binding of peptide to S. pyogenes β (S. pyogenes β): bound
binding of peptide to E. coli β clamp (E. coli β clamp): binds
inhibition of DNA synthesis by E. coli DNA polymerase III replicase [2]: inhibit DNA synthesis
inhibition of DNA synthesis by S. pyogenes PolC holoenzyme [3]: inhibit DNA synthesis
